Experimental data as given in the Human Domainome abundance scans (Beltran et al. 2025).
± gives the uncertainty stated by the source.

Test: abundance fitness (aPCA) (normalised: wild type 0, dead -1); higher = more abundant; growth selection in yeast, the domain comes from the species named
Conditions: Homo sapiens
For “BAG family molecular chaperone regulator 3 D51T, O95817”, the abundance fitness was 0.29 ± 0.25.
For “BAG family molecular chaperone regulator 3 D51V, O95817”, the abundance fitness was -0.666 ± 0.12.
Substance “BAG family molecular chaperone regulator 3 D51W, O95817” has an abundance fitness of -1.18 ± 0.23.
Substance “BAG family molecular chaperone regulator 3 D51Y, O95817” has an abundance fitness of -0.45 ± 0.4.
With “BAG family molecular chaperone regulator 3 E27A, O95817” the abundance fitness was -0.617 ± 0.18.
Work on “BAG family molecular chaperone regulator 3 E27C, O95817” yielded an abundance fitness of -0.789 ± 0.39.
Work on “BAG family molecular chaperone regulator 3 E27D, O95817” yielded an abundance fitness of -0.472 ± 0.35.
“BAG family molecular chaperone regulator 3 E27G, O95817” showed an abundance fitness of -0.54 ± 0.14.
With “BAG family molecular chaperone regulator 3 E27K, O95817” the abundance fitness was -0.42 ± 0.23.
In the case of “BAG family molecular chaperone regulator 3 E27L, O95817”, the abundance fitness is reported as -0.912 ± 0.2.
With “BAG family molecular chaperone regulator 3 E27M, O95817” the abundance fitness was -0.714 ± 0.19.
Substance “BAG family molecular chaperone regulator 3 E27N, O95817” has an abundance fitness of -0.889 ± 0.22.
In the case of “BAG family molecular chaperone regulator 3 E27P, O95817”, the abundance fitness is reported as -0.836 ± 0.39.
“BAG family molecular chaperone regulator 3 E27Q, O95817” showed an abundance fitness of -0.222 ± 0.3.
“BAG family molecular chaperone regulator 3 E27R, O95817” gave an abundance fitness of -0.742 ± 0.15.
Substance “BAG family molecular chaperone regulator 3 E27S, O95817” has an abundance fitness of -0.596 ± 0.14.
Substance “BAG family molecular chaperone regulator 3 E27T, O95817” has an abundance fitness of -0.555 ± 0.15.
For “BAG family molecular chaperone regulator 3 E27V, O95817”, the abundance fitness was -0.96 ± 0.25.
For “BAG family molecular chaperone regulator 3 E27W, O95817”, the abundance fitness was -0.988 ± 0.48.
In the case of “BAG family molecular chaperone regulator 3 E57A, O95817”, the abundance fitness is reported as -0.317 ± 0.1.
With “BAG family molecular chaperone regulator 3 E57C, O95817” the abundance fitness was -0.564 ± 0.15.
Work on “BAG family molecular chaperone regulator 3 E57F, O95817” yielded an abundance fitness of -0.052 ± 0.28.
“BAG family molecular chaperone regulator 3 E57G, O95817” gave an abundance fitness of -0.237 ± 0.12.
Work on “BAG family molecular chaperone regulator 3 E57H, O95817” yielded an abundance fitness of -0.326 ± 0.38.
“BAG family molecular chaperone regulator 3 E57I, O95817” gave an abundance fitness of -0.566 ± 0.36.
For “BAG family molecular chaperone regulator 3 E57K, O95817”, the abundance fitness was -0.11 ± 0.24.
In the case of “BAG family molecular chaperone regulator 3 E57L, O95817”, the abundance fitness is reported as -0.468 ± 0.094.
Substance “BAG family molecular chaperone regulator 3 E57M, O95817” has an abundance fitness of -0.186 ± 0.24.
Substance “BAG family molecular chaperone regulator 3 E57N, O95817” has an abundance fitness of 0.759 ± 0.22.
Substance “BAG family molecular chaperone regulator 3 E57P, O95817” has an abundance fitness of -0.027 ± 0.16.
For “BAG family molecular chaperone regulator 3 E57Q, O95817”, the abundance fitness was -0.46 ± 0.33.
With “BAG family molecular chaperone regulator 3 E57R, O95817” the abundance fitness was -0.119 ± 0.081.
“BAG family molecular chaperone regulator 3 E57S, O95817” gave an abundance fitness of -0.001 ± 0.11.
In the case of “BAG family molecular chaperone regulator 3 E57T, O95817”, the abundance fitness is reported as -0.118 ± 0.21.
In the case of “BAG family molecular chaperone regulator 3 E57V, O95817”, the abundance fitness is reported as -0.721 ± 0.21.
In the case of “BAG family molecular chaperone regulator 3 E57W, O95817”, the abundance fitness is reported as -0.423 ± 0.29.
For “BAG family molecular chaperone regulator 3 E57Y, O95817”, the abundance fitness was -0.44 ± 0.13.
In the case of “BAG family molecular chaperone regulator 3 F38A, O95817”, the abundance fitness is reported as -0.181 ± 0.15.
“BAG family molecular chaperone regulator 3 F38D, O95817” gave an abundance fitness of -0.57 ± 0.14.
Work on “BAG family molecular chaperone regulator 3 F38E, O95817” yielded an abundance fitness of -0.356 ± 0.13.
“BAG family molecular chaperone regulator 3 F38G, O95817” gave an abundance fitness of -0.503 ± 0.14.
Substance “BAG family molecular chaperone regulator 3 F38H, O95817” has an abundance fitness of -0.014 ± 0.15.
For “BAG family molecular chaperone regulator 3 F38I, O95817”, the abundance fitness was -0.692 ± 0.34.
Work on “BAG family molecular chaperone regulator 3 F38K, O95817” yielded an abundance fitness of -0.31 ± 0.088.
Substance “BAG family molecular chaperone regulator 3 F38L, O95817” has an abundance fitness of 0.326 ± 0.072.
In the case of “BAG family molecular chaperone regulator 3 F38M, O95817”, the abundance fitness is reported as 0.197 ± 0.14.
In the case of “BAG family molecular chaperone regulator 3 F38N, O95817”, the abundance fitness is reported as -0.724 ± 0.46.
With “BAG family molecular chaperone regulator 3 F38Q, O95817” the abundance fitness was 0.571 ± 0.22.
“BAG family molecular chaperone regulator 3 F38R, O95817” showed an abundance fitness of -0.149 ± 0.1.
“BAG family molecular chaperone regulator 3 F38S, O95817” showed an abundance fitness of -0.243 ± 0.069.
“BAG family molecular chaperone regulator 3 F38T, O95817” showed an abundance fitness of -0.622 ± 0.29.
“BAG family molecular chaperone regulator 3 F38V, O95817” showed an abundance fitness of -0.092 ± 0.14.
Work on “BAG family molecular chaperone regulator 3 F38W, O95817” yielded an abundance fitness of -0.665 ± 0.25.
“BAG family molecular chaperone regulator 3 F39A, O95817” gave an abundance fitness of -0.89 ± 0.18.
Work on “BAG family molecular chaperone regulator 3 F39E, O95817” yielded an abundance fitness of -0.154 ± 0.085.
“BAG family molecular chaperone regulator 3 F39G, O95817” gave an abundance fitness of -0.436 ± 0.067.
“BAG family molecular chaperone regulator 3 F39H, O95817” showed an abundance fitness of -0.615 ± 0.39.
With “BAG family molecular chaperone regulator 3 F39L, O95817” the abundance fitness was -0.528 ± 0.14.
With “BAG family molecular chaperone regulator 3 F39N, O95817” the abundance fitness was -0.442 ± 0.29.
Substance “BAG family molecular chaperone regulator 3 F39P, O95817” has an abundance fitness of -0.639 ± 0.19.
Work on “BAG family molecular chaperone regulator 3 F39Q, O95817” yielded an abundance fitness of -0.633 ± 0.5.
In the case of “BAG family molecular chaperone regulator 3 F39R, O95817”, the abundance fitness is reported as -0.618 ± 0.068.
In the case of “BAG family molecular chaperone regulator 3 F39S, O95817”, the abundance fitness is reported as -0.729 ± 0.19.
With “BAG family molecular chaperone regulator 3 F39T, O95817” the abundance fitness was -0.587 ± 0.26.
“BAG family molecular chaperone regulator 3 F39V, O95817” gave an abundance fitness of -0.754 ± 0.11.
